Measured values from US20020155995A1 (published 2002).

Target: T1, human CD163, ligand-affinity purified from Triton X-100 solubilised human spleen, placenta and liver membranes (human, UniProt Q86VB7 42-1156)
T1 construct: mature; Natural receptor purified from tissue membranes on Hp-Hb Sepharose; immobilised on BIAcore CM5 chips or in microtiter wells; also called HbSR; Hp-Hb receptor
Test: SPR, CD163 immobilised on CM5 chip
Experimental: Purified CD163 was immobilised at the BIAcore sensor CM5 chip (BIAcore AB) at a concentration of up to 50 μg/ml in 10 mM sodium acetate, pH 4.0, and the remaining binding sites were blocked with 1 M ethanolamine pH 8.5. The surface plasmon resonance signal generated from immobilised CD163 corresponded to 55-66 fmol receptor/mm². The sample and flow buffer was 10 mM Hepes, 150 mM NaCl, 0.5 mM CaCl₂, pH 7.4. The sensor chips were regenerated with 1.6 M glycine-HCl, pH 3.

T1 sequence (Q86VB7 42-1156): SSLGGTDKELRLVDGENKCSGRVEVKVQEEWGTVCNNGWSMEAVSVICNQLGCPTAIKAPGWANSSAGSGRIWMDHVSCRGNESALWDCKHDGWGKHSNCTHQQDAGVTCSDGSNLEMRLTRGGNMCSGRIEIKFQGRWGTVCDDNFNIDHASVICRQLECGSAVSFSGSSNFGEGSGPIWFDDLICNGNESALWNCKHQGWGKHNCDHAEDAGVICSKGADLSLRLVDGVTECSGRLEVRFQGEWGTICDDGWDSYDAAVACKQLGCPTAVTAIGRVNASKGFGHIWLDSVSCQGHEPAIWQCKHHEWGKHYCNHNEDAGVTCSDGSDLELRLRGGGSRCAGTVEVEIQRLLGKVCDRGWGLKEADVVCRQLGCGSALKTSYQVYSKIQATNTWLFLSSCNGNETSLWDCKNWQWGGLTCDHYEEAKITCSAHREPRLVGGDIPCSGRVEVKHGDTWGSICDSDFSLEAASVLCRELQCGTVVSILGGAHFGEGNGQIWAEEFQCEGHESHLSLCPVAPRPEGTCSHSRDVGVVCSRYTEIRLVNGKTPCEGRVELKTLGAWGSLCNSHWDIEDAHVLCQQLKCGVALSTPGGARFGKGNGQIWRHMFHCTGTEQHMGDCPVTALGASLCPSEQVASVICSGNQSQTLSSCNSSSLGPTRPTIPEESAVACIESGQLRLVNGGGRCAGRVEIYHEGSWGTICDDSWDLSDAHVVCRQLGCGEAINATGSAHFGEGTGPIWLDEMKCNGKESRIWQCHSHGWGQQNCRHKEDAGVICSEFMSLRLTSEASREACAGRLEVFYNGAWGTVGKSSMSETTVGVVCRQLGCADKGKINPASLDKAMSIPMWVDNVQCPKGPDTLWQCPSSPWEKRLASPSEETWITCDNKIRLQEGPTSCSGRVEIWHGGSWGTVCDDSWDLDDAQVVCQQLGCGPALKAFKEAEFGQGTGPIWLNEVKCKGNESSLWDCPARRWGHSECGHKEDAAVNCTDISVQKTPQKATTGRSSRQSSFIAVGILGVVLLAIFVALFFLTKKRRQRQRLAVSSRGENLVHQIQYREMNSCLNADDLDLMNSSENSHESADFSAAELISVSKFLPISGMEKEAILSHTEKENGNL

binding result: no binding (tested: 50 µg/ml Hp(2-2))
B1: human haptoglobin Hp(2-2), non-complexed (other, UniProt P00738 19-406, looked up)
chain: VDSGNDVTDIADDGCPKPPEIAHGYVEHSVRYQCKNYYKLRTEGDGVYTLNDKKQWINKAVGDKLPECEADDGCPKPPEIAHGYVEHSVRYQCKNYYKLRTEGDGVYTLNNEKQWINKAVGDKLPECEAVCGKPKNPANPVQRILGGHLDAKGSFPWQAKMVSHHNLTTGATLINEQWLLTTAKNLFLNHSENATAKDIAPTLTLYVGKKQLVEIEKVVLHPNYSQVDIGLIKLKQKVSVNERVMPICLPSKDYAEVGRVGYVSGWGRNANFKFTDHLKYVMLPVADQDQCIRHYEGSTVPEKKTPKSPVGVQPILNEHTFCAGMSKYQEDTCYGDAGSAFAVHDLEEDTWYATGILSFDKSCAVAEYGVYVKVTSIQDWVQKTIAEN
notes: mature; From Sigma; mixture of multimers; also called Hp(2-2) multimers
